Consider 10 molecules from US20110293610A1 (published 2011).

Broadly, the IC50 is the concentration needed to halve the response being measured. A higher IC50 goes with a need for much substance.

Test [1] has as its target T1, mouse B Lymphocyte Stimulator (mouse, UniProt Q9WU72 127-309, limits assumed).
T1 construct: also called murine B Lymphocyte Stimulator; immobilized mouse B Lymphocyte Stimulator
As to the kind of experiment: phage ELISA. On the technique in general: An ELISA detects its analyte on a solid surface through an enzyme-linked reagent.

The target of the next test is T2, TNF-alpha (human, UniProt P01375 77-233).
T2 construct: also called TNFα; TNF-α
T2 sequence (P01375 77-233 limits assumed): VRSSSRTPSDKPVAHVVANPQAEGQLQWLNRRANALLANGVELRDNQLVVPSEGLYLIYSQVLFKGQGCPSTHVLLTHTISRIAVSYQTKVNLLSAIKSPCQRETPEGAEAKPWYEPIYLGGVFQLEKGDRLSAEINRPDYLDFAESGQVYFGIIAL
Nature of the test: phage ELISA.

A further test deals with T3, TNF-beta (human, UniProt P01374 35-205).
T3 construct: also called TNFβ; Tumour Necrosis Factor-beta
T3 sequence (looked up): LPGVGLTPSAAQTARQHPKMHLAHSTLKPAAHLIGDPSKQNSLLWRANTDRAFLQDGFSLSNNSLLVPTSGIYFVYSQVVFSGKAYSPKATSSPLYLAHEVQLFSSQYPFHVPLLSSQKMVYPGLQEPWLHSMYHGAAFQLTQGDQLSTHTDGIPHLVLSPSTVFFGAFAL
As to the kind of experiment: phage ELISA.

The target in the next test is T4, Fas ligand (human, UniProt P48023 134-281, limits assumed).
T4 sequence (looked up): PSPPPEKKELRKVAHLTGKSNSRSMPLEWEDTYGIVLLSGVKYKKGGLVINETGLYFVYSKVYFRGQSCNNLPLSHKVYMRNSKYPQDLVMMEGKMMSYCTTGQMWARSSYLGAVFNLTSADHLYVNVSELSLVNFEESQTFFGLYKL
As to the kind of experiment: phage ELISA.

The next test addresses T5, TRAIL (human, UniProt P50591 114-281).
T5 construct: also called TNF-related apoptosis inducing ligand
As to the kind of experiment: phage ELISA.

Test [2] concerns the target T6, B Lymphocyte Stimulator, soluble form (human) (human, UniProt Q9Y275 134-285, biotinylated with NHS-biotin where used as biotinylated B Lymphocyte Stimulator).
T6 construct: Coated on plastic, captured on streptavidin plates, amine-coupled to a CM5 chip or free in solution, depending on the assay; also called BLyS; immobilized B Lymphocyte Stimulator
As to the kind of experiment: purified scFv, inhibition of biotinylated BLyS binding to IM9 cells. The procedure:
To a separate 96-well plate, titrate test scFvs in MPBS, in triplicate, over a concentration range from 10 μg/ml down to 0.001 μg/ml were added. The final volume of test scFv in each well was 55 μl. […] Plates were then incubated at room temperature for 30 minutes.
Plates were washed three times in PBST and three times in PBS, tapped dry and 50 μl per well added of streptavidin-Delfia (Wallac) at 1:1000 dilution in the Manufacturer's assay buffer. The plates were then incubated at room temperature for 1 hour and washed six times in Delfia wash solution (Wallac). After tapping the plates dry, 100 μl per well of Delfia enhancement solution (Wallac) was added. The plates were gently tapped to encourage micelle formation, incubated at room temperature for 10 minutes, and fluorescence read on a Wallac 1420 workstation at […].

The target in test [3] is T6, B Lymphocyte Stimulator, soluble form …. Nature of the test: phage competition ELISA on P388 plasma membranes. The procedure:
P388 plasma membranes (50 μl per well) were coated at 10 μg/ml in PBS onto Falcon 96-well plates overnight at 4° C. The method is otherwise essentially as described Example 16.

Test [4] addresses T7, membrane-bound B Lymphocyte Stimulator on U937 plasma membrane preparations (human, UniProt Q9Y275 1-285).
T7 construct: Natural protein in plasma membrane fractions of the human cell line U937 coated on ELISA plates; also called U937 plasma membranes; U937 membranes
As to the kind of experiment: phage ELISA.

Test [5] has as its target T6, B Lymphocyte Stimulator, soluble form …. As to the kind of experiment: phage competition ELISA on U937 plasma membranes. The procedure: (§1) For each test phage antibody, 3 aliquots of 20 μl 18% marvel/6×PBS were transferred into separate wells of a 96-well plate. The first aliquot was supplemented with His-tagged B Lymphocyte Stimulator to a final concentration of 60 μg/ml. The second aliquot was supplemented with soluble B Lymphocyte Stimulator to a final concentration of 60 μg/ml. The third aliquot was not supplemented with any competing antigen. One hundred μl of phage supernatant was then added to each aliquot and left to block at room temperature for 1 hour.
(§2) The antigen-coated plates were washed once with PBS before the addition of 200 μl/well 3% marvel/PBS. These plates were left to block at 37° C. for 1 hour and were then washed once with PBS. Duplicate samples of 50 μl pre-blocked phage (above) were added to the antigen-coated plates and left at room temperature for 1 hour. Plates were washed 3× with PBS/0.1% Tween 20, then 3× with PBS. Fifty μl/well mouse anti-M13 HRP (Pharmacia) at 1/5000 in 3% Marvel/PBS was added and left for 1 hour at room temperature. Plates were washed 3 times with PBS/0.1% Tween 20, then 3 times with PBS. Fifty […] HRP-labelled anti-mouse Envision polymer (DAKO) at 1/50 in 3% marvel/PBS was added and left for 1 hour at RT. Plates were washed 3 times with PBS/0.1% Tween 20, then 3 times with PBS. Next, 50 μl/well of TMB (Sigma) was added and plates left to develop for 30 to 60 minutes. When sufficient color has developed, 25 μl/well 0.5M H₂SO₄ was added to stop the reaction. The plates were read at 450 nm on a microtiter plate reader (Bio-Rad 3550).

The target in test [6] is T8, HIS-tagged B Lymphocyte Stimulator (human, UniProt Q9Y275 71-285).
T8 construct: Expressed in E. coli from pQE9 and purified; also called histidine-tagged B Lymphocyte Stimulator; HIS-B Lymphocyte Stimulator; not shown: histidine tag of the pQE9 vector
Nature of the test: phage competition ELISA on U937 plasma membranes. The procedure: as §1, §2

The target in test [7] is T6, B Lymphocyte Stimulator, soluble form …. As to the kind of experiment: phage ELISA.
Test [8] addresses T8, HIS-tagged B Lymphocyte Stimulator. Nature of the test: phage ELISA.
Test [9] concerns the target T6, B Lymphocyte Stimulator, soluble form …. Nature of the test: cell-based or functional assay.

T1 sequence (Q9WU72 127-309 limits assumed): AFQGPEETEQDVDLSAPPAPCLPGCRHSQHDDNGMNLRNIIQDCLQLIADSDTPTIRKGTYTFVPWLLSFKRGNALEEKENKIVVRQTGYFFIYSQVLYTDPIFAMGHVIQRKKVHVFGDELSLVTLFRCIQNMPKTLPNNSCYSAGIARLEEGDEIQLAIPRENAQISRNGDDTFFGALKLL
T5 sequence (P50591 114-281 limits assumed): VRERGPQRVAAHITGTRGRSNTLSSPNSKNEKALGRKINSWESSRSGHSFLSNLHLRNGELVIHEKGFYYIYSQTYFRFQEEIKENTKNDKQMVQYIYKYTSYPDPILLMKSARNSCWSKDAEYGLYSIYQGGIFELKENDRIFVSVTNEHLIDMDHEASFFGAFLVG

B1: I007F11 (scFv)
scFv: GVQLVQSGAEVKKPGASVKVSCKASGYTFTNYGITWVRQTPGQGLEWMGWISAYNGNRNYAQKLQGRVTMTTDTSTSTAYMELRSLRSDDTAVYYCVRDGIDILLVPAALMDVWGQGTMVTVSSGGGGSGGGGSGGGGSQSVLTQPASVSGSPGQSITISCTGTSSDVGGYNYVSWYQQHPGKAPKLMIYEGSKRPSGVSNRFSGSKSGNTASLTISGLQAEDEADYYCSSYTTRSTRVFGGGTKLTVLG
On to B1, for which the binding result (in [1]; in the test with TNF-alpha; in the test with TNF-beta; in the test with Fas ligand; in the test with TRAIL) was “no binding” in each case. Also, the IC50 in test [2] is 7.9 nM.

B2: I099D03 (scFv)
scFv: QVQLVQSGAEVKKPGASVRVSCKSSGYTFTNYGISWVRQAPGQGLEWMGWISNNNGKTYYAQKVQGRVTMTTDTSTSTDYMELRGLRSDDTAIYYCARDNGGGTIGFDYWGRGTLVTVSSGGGGSGGGGSGGGGSAQAVLTQPSSVSGAPGQRVTMSCTGSSSNIGAGYDVHWYQQLPGTAPKLLIYDNTNRPSGVPDRFSGSRSGTSASLAITGLQAEDEADYFCQSYDITLSAVFGTGTKVTVLG
Take B2: the binding result in [3] is “no binding”.

B3: I079F08 (scFv)
scFv: QMQLVQSGGGVVQPGRSLRLSCAASGFTFSSYGMHWVRQAPGKGLEWVAVISYDGSIKYYADSVKGRFTISRDNSKNTLYLQMNSLRAEDTAVYYCARYYYHSSGSDAFDIWGQGTLVTVPSGGGGSGGGGSGGGGSQSVLTQPPSASGTPGQRVTISCSGSSSNIGSNTVNWYQRLPGAAPQLLIYNNNQRPSGVPDRFSGSKSGTSASLAISGLQSEDEADYYCAAWDDSLNGWVFGGGTKLTVLG
For B3, the values for the binding result in test [4], in test [5] and in [6] were “binds”, “no binding (tested: 60 µg/ml competing antigen)” and “binds”, respectively.

B4: I079E02 (scFv)
scFv: QVQLVQSGAEVKKPGSSVKVSCKASGGTFSSYAISWVRQAPGQGLEWMGGIIPIFGTANYAQKFQGRVTITADKSTSTAYMELSSLRSDDTAVYYCARDSGSYYYDAFDIWGKGTMVTVSSGGGGSGGGGSGGGGSDIVMTQSPSTLSASVGDRVTITCRASQGISSWLAWYQQKPGKAPKLLIYAASSLQSGVPSRFSGSGSGTDFTLTISSLQPEDFATYYCQQANSFPLTFGGGTKVEIKR
With B4, in test [3], the binding result is listed as “no binding”.

B5: I080B01 (scFv)
scFv: QVQLVQSGAEVKKPGASVKVSCKASGYTFTNYYMHWVRQAPGQGLEWMGIINPRDVSTTYAQKFQGRATMTRDTSTSTVYMELNSLRSEDTAVYYCAREYSGYHYVEGGSYAMDVWGQGTMVTVSSGGGGSGGGGSGGGGSALSYVLTQPPSASGTPGQRVTITCSGSSSNIGNYYVNWYQQVSGTAPKLIIYRNNQRPSGVPDRFSGSKSGASASLAISGLRSEDEADYFCAAWDDSLREFVFGTGTKVTVLG
On to B5, for which the binding result was “binds” in test [4], “no binding (tested: 60 µg/ml competing antigen)” in test [5] and “binds” in [6].

B6: I082H08 (scFv)
scFv: EVQLVESGGGLVQPGGSLRLSCAASGFTFSDYGMHWVRQRPGKGLEWIAFIGSDGSNKYYGDTVKGRFTISRDNAKNSLYLQMNSLRAEGTAVYYCARDWDMDVWGQGTMVTVSSGGGGSGGGGSGGGGSSHVILTQPRSVSGSPGQSVTISCTGTSSDVGGYHYVSWYQQHPGKAPRLMIYEVTKRPSGVSNRFSGSKSGNTASLTISGVQAEDEADYYCSSYTSASTVIFGGGTKLTVLG
For B6, in test [3], the binding result was “no binding”.

B7: I079C01 (scFv)
scFv: EVQLVESGGGLVQPGGSLRLSCAASGFTFSDYGMHWVRQRPGKGLEWIAFIGSDGSNKYYGDTVKGRFTISRDNAKNSLYLQMNSLRAEGTAVYYCARDWDMDVWGQGTMVTVSSGGGGSGGGGSGGGGSHVILTQPRSVSGSPGQSVTISCTGTSSDVGGYHYVSWYQQHPGKAPRLMIYEVTKRPSGVSNRFSGSKSGNTASLTISGVQAEDEADYYCSSYTSASTVIFGGGTKLTVLG
On to B7, for which the figures for the binding result in test [7], in [4] and in [8] were “no binding”, “binds” and “binds”, respectively.

B8: I079B04 (scFv)
scFv: EVQLVESGGGLVQPGGSLRLSCAASGFTFSDYAMSWVRQAPGKGLEWVSAISGSGGSTSYADSVKGRFTISRDNSKNTLYLQMNSLRAEDTAVYYCASLLSDYWGRGTTVTVSSGGGGSGGGGSGGGGSQSVLTQPASVSGSPGQSITISCTGTSSDVGGYNYVSWYQQHPGKAPKLMIYEGSKRPSGVSYRFSGSKSGNTASLTISGLQAEDEADYYCSSYTTRSTRVFGGGTKLTVLG
For B8, the binding result in [4] is “binds”; in test [5] it was “no binding (tested: 60 µg/ml competing antigen)”; in [6], “binds”.

B9: I116A01 (whole IgG1) (antibody, V domains shown)
VH: QVQLQQSGAEVKKPGSSVRVSCKASGGTFNNNAINWVRQAPGQGLEWMGGIIPMFGTAKYSQNFQGRVAITADESTGTASMELSSLRSEDTAVYYCARSRDLLLFPHHALSPWGRGTMVTVSS
VL: SSELTQDPAVSVALGQTVRVTCQGDSLRSYYASWYQQKPGQAPVLVIYGKNNRPSGIPDRFSGSSSGNTASLTITGAQAEDEADYYCSSRDSSGNHWVFGGGTELTVLG
For B9, the “IC50 for the inhibition of human B Lymphocyte Stimulator induced-proliferation of murine B cells (3H-thymidine incorporation)” value in test [9] is 0.06 nM.

B10: I082A02 (scFv)
scFv: QVQLVQSGAEVKEPGASVKISCEASGYTFTNNFIDWVRQAPGQGLEWMGTISGSTGNTYYKQGFQGRVTMTRDTATSTAYLEVRGLTSEDTAIYFCARPAASSRGPKDAFDIWGQGTLVTVSSGGGGSGGGGSGGGGSQSVLTQPPSVSAAPGQKVTISCSGSTSNIGNNYVSWYQQHPGKAPKLMIYDVSKRPSGVPDRFSGSKSGNSASLDISGLQSEDEADYYCAAWDDSLSEFLFGTGTKLTVLG
Regarding B10, the binding result is on record as “no binding” in test [7], “binds” in test [4] and “binds” in test [8].
